Legend:
Assay type in all cases: binding
Details in all cases: relative to the Beclin peptide according to the invention
Bcl-XL = Bcl-XL (Homo sapiens, UniProt Q07817); test: Ki by fluorescence polarisation: competition with the Bak BH3 carboxyfluorescein peptide for Bcl-XL
Method: (§1) The determination of Ki using fluorescence polarisation consists of measuring the competitive effect of the Beclin peptide on the interaction between the pro-apoptotic Bak peptide and anti-apoptotic members of the Bcl-2 protein family such as Bcl-XL, Bcl-2 or Bcl-W.
(§2) The following reagents are mixed together in the order stated: • a) competitor peptide at a final concentration of from 1 nM to 100 μM; • b) fluorescent peptide ligand (Bak BH3 carboxyfluorescein) at a final concentration of 15 nM; • c) anti-apoptotic member of the Bcl-2 protein family at a final concentration of 100 nM for Bcl-XL and of 1 μM for Bcl-2 and Bcl-W.
(§3) These reagents are dissolved in the interaction buffer (Na2HPO4 20 mM pH 7.4, EDTA 1 mM, NaCl 50 mM and pluronic acid F-68 0.05%).
(§4) The mixture is then incubated for 30 minutes at ambient temperature and the fluorescence polarisation is determined on a Fusion apparatus (Packard) (excitation at 485 nm and reading at 530 nm). The values are given in mP (unit of fluorescence polarisation).
(§5) The protocol for the determination of Ki using fluorescence polarisation is the same as the protocol described above.

Bcl-2 = Bcl-2 (Homo sapiens, UniProt P10415); test: Ki by fluorescence polarisation: competition with the Bak BH3 carboxyfluorescein peptide for Bcl-2
Method: as §1, §2, §3, §4, §5

Bcl-W = target: T1, Bcl-W (Homo sapiens, UniProt Q92843); test: Ki by fluorescence polarisation: competition with the Bak BH3 carboxyfluorescein peptide for Bcl-W
T1 sequence (Q92843 1-193): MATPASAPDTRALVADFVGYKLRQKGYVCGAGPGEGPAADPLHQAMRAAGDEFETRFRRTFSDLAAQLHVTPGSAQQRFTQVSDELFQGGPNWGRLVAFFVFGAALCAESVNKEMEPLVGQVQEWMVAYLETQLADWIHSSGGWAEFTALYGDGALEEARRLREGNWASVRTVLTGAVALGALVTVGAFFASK
Method: as §1, §2, §3, §4, §5

Chain of Bcl-XL (Q07817 whole entry): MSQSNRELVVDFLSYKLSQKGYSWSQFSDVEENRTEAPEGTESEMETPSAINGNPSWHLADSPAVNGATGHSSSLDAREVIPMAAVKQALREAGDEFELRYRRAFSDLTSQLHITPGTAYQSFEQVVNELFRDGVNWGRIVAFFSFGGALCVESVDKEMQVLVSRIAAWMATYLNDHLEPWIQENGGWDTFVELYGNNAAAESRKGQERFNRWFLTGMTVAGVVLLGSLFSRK
Chain of Bcl-2 (P10415 whole entry): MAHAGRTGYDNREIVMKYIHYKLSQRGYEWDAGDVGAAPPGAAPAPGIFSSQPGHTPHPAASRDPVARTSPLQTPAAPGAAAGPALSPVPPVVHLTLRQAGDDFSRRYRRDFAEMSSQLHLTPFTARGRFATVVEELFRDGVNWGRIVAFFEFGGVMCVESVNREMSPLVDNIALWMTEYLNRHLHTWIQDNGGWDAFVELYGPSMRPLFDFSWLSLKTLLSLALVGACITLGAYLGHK

GTMENLSRRAKVTGDLFDIMSGQTDV (Mutated Beclin Peptide) [mutant Beclin protein (L116A)]
loss of competitive effect: competitive effect on the interaction between Bak peptide and Bcl-XL (Bcl-XL) | competitive effect on the interaction between Bak peptide and Bcl-2 (Bcl-2) | competitive effect on the interaction between Bak peptide and Bcl-W (Bcl-W)

Reference: patent US7919233B2, “Motif of the beclin protein which interacts with anti-apoptotic members of the Bcl-2 protein family, and uses” (Les Laboratoires Servier, priority 2005, dated 2011)
